Results: the RNAGym collection of RNA variant scans (doi:10.7554/elife.80360)

B1: Twister Ribozyme (parent)
chain: AACACUGCCAAUGCCGGUCCCAAGCCCGGAUAAAAGUGGAGGGGGCGG

Variants of: B1
Assay: self-cleavage, relative activity (ratio to wild type); higher = more cleavage; co-transcriptional

First: G13U G29A
Second: U12A G41C
The self-cleavage of the first is higher: 0.368 for the first, 0.264 for the second.

First: U12A G41A
Second: G13U C26G
The self-cleavage of the first is higher: 0.696 for the first, 0.0668 for the second.

First: G13U C26U
Second: G13A G28A
The self-cleavage of the first is lower: 0.109 for the first, 0.579 for the second.

First: G13A G28C
Second: G13A G28U
The self-cleavage of the first is lower: 0.581 for the first, 0.623 for the second.

First: G13A C26U
Second: U12C G13U
The self-cleavage of the first is lower: 0.142 for the first, 0.659 for the second.

Going from U12C G13C to U12C G13A, the self-cleavage rises from 0.453 to 0.772.

First: U12G G28U
Second: U12G G28A
The self-cleavage of the first is lower: 0.464 for the first, 0.799 for the second.

Compared with G13A A40U, G13A A40C is higher in self-cleavage: 0.209 for the first, 0.224 for the second.

Going from G13U A30G to G13U A30C, the self-cleavage falls from 0.926 to 0.665.

Compared with U12G A35G, G13U A23G is lower in self-cleavage: 0.815 for the first, 0.0827 for the second.

Compared with G13C G36U, C14A G38C is higher in self-cleavage: 0.0844 for the first, 0.861 for the second.

Compared with C14A G38A, U12C G29A is higher in self-cleavage: 0.874 for the first, 0.988 for the second.

Going from C14A C25A to C14A C25G, the self-cleavage rises from 0.242 to 0.657.

First: C14A C25U
Second: G13A G48A
The self-cleavage of the first is higher: 0.699 for the first, 0.659 for the second.

Going from U12C A32U to U12C A32C, the self-cleavage rises from 0.835 to 0.982.

Going from U12C A32G to C14A G44U, the self-cleavage falls from 1.24 to 0.883.

First: G13A A34G
Second: G13A A34C
The self-cleavage of the first is higher: 0.635 for the first, 0.173 for the second.

First: G13C A30U
Second: G13C A30C
The self-cleavage of the first is higher: 0.612 for the first, 0.518 for the second.

Going from G13U U37A to G13U U37G, the self-cleavage falls from 0.133 to 0.119.

Compared with G13U A33C, G13C G48A is lower in self-cleavage: 0.563 for the first, 0.115 for the second.

First: G13C G48U
Second: G13C G48C
The self-cleavage of the first is lower: 0.217 for the first, 0.249 for the second.

Going from G13A A33U to C14A C46U, the self-cleavage falls from 1.01 to 0.827.

Going from C14A C46A to C14A G29U, the self-cleavage rises from 0.773 to 0.903.

Compared with C14A G29A, C14A G29C is lower in self-cleavage: 0.974 for the first, 0.947 for the second.

Compared with U12C G44U, U12C G44A is lower in self-cleavage: 0.902 for the first, 0.852 for the second.

First: U12G C19G
Second: U12G C19A
The self-cleavage of the first is higher: 0.686 for the first, 0.601 for the second.

First: G13U G39C
Second: G13U G39U
The self-cleavage of the first is higher: 0.11 for the first, 0.0998 for the second.

Going from G13U A35C to G13U A35U, the self-cleavage rises from 0.587 to 0.696.

Compared with U12G C15G, U12G C15A is higher in self-cleavage: 0.115 for the first, 0.614 for the second.

Going from U12G G36A to U12G G36C, the self-cleavage falls from 0.64 to 0.475.

Compared with U12G G36U, U12G C14A is higher in self-cleavage: 0.397 for the first, 0.726 for the second.

First: U12G C14U
Second: U12G C14G
The self-cleavage of the first is higher: 0.756 for the first, 0.124 for the second.

Going from G13A U31A to G13C G39A, the self-cleavage falls from 1.02 to 0.118.

Going from U12G G43A to U12G A40G, the self-cleavage falls from 0.399 to 0.163.

Going from U12G G47A to U12G G47U, the self-cleavage falls from 0.772 to 0.703.

First: G13U C25G
Second: U12C A22U
The self-cleavage of the first is lower: 0.0724 for the first, 0.805 for the second.

First: U12C A22C
Second: U12C C19U
The self-cleavage of the first is lower: 0.861 for the first, 0.951 for the second.

First: G13A C20A
Second: G13A C20U
The self-cleavage of the first is lower: 0.09 for the first, 0.262 for the second.

Going from G13A C20G to U12C U18A, the self-cleavage rises from 0.115 to 0.474.

Going from U12C U18C to G13U C14A, the self-cleavage rises from 0.564 to 0.687.

Compared with G13U C14G, U12A G45U is higher in self-cleavage: 0.512 for the first, 1.02 for the second.

First: C14A A22U
Second: C14A A22G
The self-cleavage of the first is higher: 0.657 for the first, 0.407 for the second.

Going from C14A A22C to G13A U18G, the self-cleavage falls from 1.09 to 0.0757.

Going from G13A U18C to G13C U31C, the self-cleavage rises from 0.129 to 0.552.

Compared with G13A G39A, G13A G39U is lower in self-cleavage: 0.202 for the first, 0.171 for the second.

First: U12A G48U
Second: U12A G48A
The self-cleavage of the first is higher: 1.18 for the first, 0.991 for the second.

Going from U12A G48C to G13U U31C, the self-cleavage falls from 1.22 to 0.639.

First: U12G A30U
Second: U12G A30G
The self-cleavage of the first is higher: 0.812 for the first, 0.783 for the second.

First: G13A C21A
Second: G13U U18C
The self-cleavage of the first is higher: 0.0879 for the first, 0.0744 for the second.

Going from G13U U18G to G13U U18A, the self-cleavage rises from 0.0548 to 0.0935.

Going from C14A A32G to G13U G16A, the self-cleavage falls from 0.857 to 0.302.

First: G13A G42A
Second: U12G C46G
The self-cleavage of the first is lower: 0.186 for the first, 0.757 for the second.

Going from G13U G38U to G13U G38C, the self-cleavage rises from 0.303 to 0.6.

Compared with G13U A22C, G13A G45C is lower in self-cleavage: 0.708 for the first, 0.229 for the second.

First: U12G A22G
Second: U12G G29A
The self-cleavage of the first is lower: 0.316 for the first, 0.622 for the second.

First: U12G G29C
Second: G13U A40C
The self-cleavage of the first is higher: 0.677 for the first, 0.129 for the second.

Going from G13U A40U to G13A G17U, the self-cleavage falls from 0.16 to 0.108.

Compared with G13A G17C, U12C G17A is higher in self-cleavage: 0.0471 for the first, 0.532 for the second.

Compared with U12C G39A, U12C G39C is lower in self-cleavage: 0.609 for the first, 0.127 for the second.

Compared with U12C G39U, G13C C46A is higher in self-cleavage: 0.222 for the first, 0.232 for the second.

Compared with G13C C46G, G13C C46U is higher in self-cleavage: 0.268 for the first, 0.485 for the second.

Going from G13U G28U to G13U G28A, the self-cleavage rises from 0.466 to 0.543.

Going from C14A A30U to U12C G24C, the self-cleavage falls from 0.968 to 0.0606.

First: U12C G24U
Second: U12A G47A
The self-cleavage of the first is lower: 0.168 for the first, 1.13 for the second.

First: U12A G47U
Second: C14A A35C
The self-cleavage of the first is higher: 1.05 for the first, 0.863 for the second.

Compared with C14A A35U, U12C G43U is lower in self-cleavage: 0.789 for the first, 0.485 for the second.

Going from U12C G43A to U12A U37G, the self-cleavage rises from 0.243 to 0.925.

Going from U12C C15A to U12C C15G, the self-cleavage falls from 0.739 to 0.0964.

Going from U12G G24A to U12G G24C, the self-cleavage falls from 0.177 to 0.0924.

First: U12C G28A
Second: U12C G28C
The self-cleavage of the first is higher: 0.829 for the first, 0.814 for the second.

Compared with C14A G43U, G13C U37A is lower in self-cleavage: 0.456 for the first, 0.075 for the second.

First: G13A C19G
Second: G13C G43U
The self-cleavage of the first is lower: 0.123 for the first, 0.128 for the second.

Compared with G13A G36C, G13C C19A is lower in self-cleavage: 0.118 for the first, 0.0574 for the second.

Going from G13C G24A to G13C G24C, the self-cleavage falls from 0.0986 to 0.0811.

Going from U12C C20G to G13U A32C, the self-cleavage rises from 0.103 to 0.595.

First: G13C G42A
Second: G13C C20A
The self-cleavage of the first is higher: 0.12 for the first, 0.0483 for the second.

Compared with G13C C20U, G13C C20G is lower in self-cleavage: 0.125 for the first, 0.0962 for the second.

Compared with U12G G45A, U12C C14A is higher in self-cleavage: 0.583 for the first, 0.818 for the second.

First: U12C C14G
Second: G13C G44A
The self-cleavage of the first is lower: 0.0887 for the first, 0.584 for the second.

Going from G13A C27G to U12G G38U, the self-cleavage rises from 0.073 to 0.76.

Compared with U12G G38C, C14A C27U is lower in self-cleavage: 0.881 for the first, 0.75 for the second.

Going from U12G U18G to U12G G44A, the self-cleavage rises from 0.0252 to 0.784.

Going from U12G G44U to U12G G44C, the self-cleavage falls from 0.799 to 0.681.

G13A C14G gave a self-cleavage of 0.551.
